Measurements taken from article PMC10267580.

Biological target: Rab6B^Q72L, GTPase domain (residues 8-176), constitutively active mutant (mouse) (UniProt P61294)
Assay: ITC; MicroCal PEAQ-ITC, 25 °C, 50 mM Tris pH 7.5, 100 mM NaCl, 2 mM MgCl2; typically one protein (400 μM) in the syringe into its binding protein (40 μM) in the cell

Sequence of Rab6B^Q72L, GTPase domain (residues 8-176), constitutively active mutant (mouse) (P61294 8-176 Q72L): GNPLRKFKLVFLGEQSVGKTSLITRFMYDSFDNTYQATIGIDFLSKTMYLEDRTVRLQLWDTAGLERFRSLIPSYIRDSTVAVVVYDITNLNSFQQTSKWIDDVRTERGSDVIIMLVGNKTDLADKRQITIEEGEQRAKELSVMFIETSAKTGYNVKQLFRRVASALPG

Substance “ELKS2_RBD, the region of ELKS2 corresponding to ELKS1 residues 849-922 (domain or fragment)” has a Kd of 8 µM.
